Results taken from patent US20150258217A1, “Methods of Synthesizing and Using Peg-Like Fluorochromes” (THE GENERAL HOSPITAL CORPORATION, priority 2012, published 2015).

Tests used:
[1] = Quantum yield determination; assay type: physicochemical; details: for Quant. Yield: Table 5, in PBS
Outline: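 Relative quantum yields in PBS, probe absorbance adjusted below 0.1, references IR-783 (0.043), fluorescein (0.18), Cy3 (0.31). Excitation/emission ranges: PN(783) 730 nm/765–870 nm; PN(545) 515 nm/538–700 nm; PN(497) 450 nm/475–620 nm, maximum emission used. Triplicate, mean±SD.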

[2] = PN and peptide size (volume, diameter) by FPLC gel filtration (Superdex 200, globular protein standards); assay type: physicochemical; details: for Volume FPLC (diameter) / Volume FPLC: Table 5; for Volume FPLC (diameter): converted from globular protein equivalent MW; for Volume FPLC: globular protein equivalent molecular weight
Outline: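 Superdex 200 size exclusion in 0.05 M sodium phosphate, 0.15 M NaCl, 0.1% Tween, pH 7.2 at 0.8 ml/min, calibrated with globular protein standards via Kav. Apparent globular-equivalent molecular weight converted to diameter using radius (nm)=0.066M^1/3.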

[3] = PN pharmacokinetics, blood fluorescence fit to two-compartment model; assay type: in vivo, mouse; details: for Alpha half-life / Alpha rate / Beta half-life / Beta rate: nude mice, IV, 10 nmole, biexponential fit; for k elim half-life / k elim rate / k perm half-life / k perm rate / k vas return half-life / k vas return rate: two-compartment model micro constant
Protocol: Groups of 5 nude mice (female; 25-30 g; 6-8 weeks old; nu/nu) were injected (tail vein, IV) with 10 nmole of PN(783)4.3 or PN(783)10.0. 50 μl of blood was collected from tail tip at the indicated times. The blood was processed as above, and diluted (25 μl plasma, 700 μl of PBS). Fluorescence was measured with Cary Eclipse Fluorescence Spectrophotometer, excitation at 765 nm and emission from 790 to 880 nm. The fluorescence intensity at 806 nm was plotted over time, and the data was fit with two-phase decay curve. The fast and slow distribution half-life was given by the two-phase decay fit with Graphpad Prism software.
From the two-phase decay fit, a biexponential equation for blood concentration as a function of time, was obtained. By the relation of macro constants and micro constants, micro constants k's can be obtained, and the half-life was calculated by as described in Rosenbaum, S. E. Basic Pharmacokinetics and Pharmacodynamics: An Integrated Textbook and Computer Simulations, (John Wiley and Sons, Hoboken, N.J., 2011). The curve for interstitium concentration vs. time was fit with MATLAB based on the curve of blood concentration vs. time.
Serum fluorescence data from FIG. 24b and FIG. 24c was analyzed using the two-compartment model as described in Rosenbaum, S. E. Basic Pharmacokinetics and Pharmacodynamics: An Integrated Textbook and Computer Simulations, (John Wiley and Sons, Hoboken, N.J., 2011). Data were first fit to biexponential equation, yielding values of Alpha, Beta (apparent decay constants) and values of A and B as shown in equations 1 and 2 below.
By the relation of macro constants and micro constants, […]

[4] = Circulating form of PN's (FPLC of serum after IV injection); assay type: in vivo, mouse; details: nude mice, 20 nmoles
Protocol: 20 nmoles of PN(783)4.3, PN(783)6.1, or PN(783)10.0 was injected (IV, tail vein) into nude mice (female; 25-30 g; 6-8 weeks old; nu/nu). At the indicated time, 50 μl of blood was collected with microhematocrit capillary tube (Fisher Scientific) from the tail, and transferred to Eppendorf microcentrifuge tube with anticoagulant (EDTA) coating (Fisher Scientific). Tubes were centrifuged (5000 rpm for 5 minutes), and the supernatant was injected to the FPLC, a ÄKTA Purifier 10 with Superdex™ 200 10/300GL column.

Substance | Quant. Yield [1] | Volume FPLC (diameter) [2] [nm] | Volume FPLC [2] [kDa] | Alpha half-life [3] [h] | Alpha rate [3] [h⁻¹] | Beta half-life [3] [h] | Beta rate [3] [h⁻¹] | k elim half-life [3] [h] | k elim rate [3] [h⁻¹] | k perm half-life [3] [h] | k perm rate [3] [h⁻¹] | k vas return half-life [3] [h] | k vas return rate [3] [h⁻¹] | circulating form after injection (FPLC elution vs pre-injection sample) [4] | Quantum Yield ([1]; Table 3B, IR-783 dipeptides) | PEG-based expansion of volume ([2]; 5 kDa PEG vs non-PEGylated peptide, (4.3/1.1)) [fold] | diameter ([2]; FPLC gel filtration) [nm] | Molecular Volume FPLC ([2]; Table 3B, dipeptides) [kDa]
(DOTA)Lys(PEG30K)-Cys(IR-783) [PN(783)10.0] | 0.16 | 10.0 | 435.4 | 0.51 | 1.36 | 7.0 | 0.099 | 4.2 | 0.24 | 1.02 | 0.67 | 1.23 | 0.56 | circulates at its pre-injection size |  |  |  | 
(DOTA)Lys(PEG5K)-Cys(IR-783) [PN(783)4.3] | 0.16 | 4.3 | 35.2 | 0.13 | 5.30 | 1.64 | 0.42 | 1.01 | 0.68 | 0.40 | 1.74 | 0.20 | 3.30 | identical for pre-injection samples and for sera from injected mice | 0.17 | 59 | 4.3 | 35.2
